What is called IC50 is the concentration that gives 50% inhibition.

Like-named read-outs stand apart in the source and are kept apart here. Where no end group is shown, it is not given here.

In assay [1] the target is T1, recombinant nidogen (Mus musculus (Mouse), UniProt P10493).
T1 sequence: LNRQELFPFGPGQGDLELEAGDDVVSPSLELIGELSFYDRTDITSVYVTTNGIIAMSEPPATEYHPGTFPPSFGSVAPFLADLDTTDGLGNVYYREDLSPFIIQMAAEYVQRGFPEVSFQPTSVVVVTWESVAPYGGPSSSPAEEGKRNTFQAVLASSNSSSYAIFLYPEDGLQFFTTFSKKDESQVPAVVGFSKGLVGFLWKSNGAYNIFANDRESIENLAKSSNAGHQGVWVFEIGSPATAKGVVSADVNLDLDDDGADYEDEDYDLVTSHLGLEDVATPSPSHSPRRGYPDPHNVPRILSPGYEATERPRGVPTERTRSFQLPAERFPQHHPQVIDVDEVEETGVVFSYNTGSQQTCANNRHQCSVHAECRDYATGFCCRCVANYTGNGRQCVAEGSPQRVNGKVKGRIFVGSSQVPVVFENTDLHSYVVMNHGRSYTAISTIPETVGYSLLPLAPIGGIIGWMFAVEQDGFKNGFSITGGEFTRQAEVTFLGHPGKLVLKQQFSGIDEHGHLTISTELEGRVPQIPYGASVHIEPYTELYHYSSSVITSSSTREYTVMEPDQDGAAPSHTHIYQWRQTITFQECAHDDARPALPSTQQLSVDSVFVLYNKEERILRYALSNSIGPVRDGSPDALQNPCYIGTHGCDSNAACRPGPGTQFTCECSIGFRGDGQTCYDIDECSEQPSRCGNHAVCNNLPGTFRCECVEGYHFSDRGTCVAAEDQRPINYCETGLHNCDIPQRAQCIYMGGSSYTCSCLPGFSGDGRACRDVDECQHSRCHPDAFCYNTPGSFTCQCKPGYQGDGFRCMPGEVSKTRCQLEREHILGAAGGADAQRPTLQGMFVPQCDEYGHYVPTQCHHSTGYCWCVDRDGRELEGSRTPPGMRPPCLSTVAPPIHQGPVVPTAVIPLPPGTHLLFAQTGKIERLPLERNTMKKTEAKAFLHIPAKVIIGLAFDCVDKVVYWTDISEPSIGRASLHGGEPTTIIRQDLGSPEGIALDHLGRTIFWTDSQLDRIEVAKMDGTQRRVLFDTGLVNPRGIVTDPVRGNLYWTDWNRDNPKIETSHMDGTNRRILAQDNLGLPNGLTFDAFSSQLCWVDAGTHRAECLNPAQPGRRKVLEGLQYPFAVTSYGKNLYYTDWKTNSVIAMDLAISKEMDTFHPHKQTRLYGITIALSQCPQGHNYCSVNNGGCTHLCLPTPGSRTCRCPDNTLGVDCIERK
Kind of assay: radioligand competition assay: inhibitor varied, 0.2 nM recombinant nidogen, 125I-laminin fragment P1. As to the method:
(§1) A radioligand competition assay was used for measurement of relative binding affinities (Mann K. et al. (1988), Eur. J. Biochem., 178, 71–80; Fox, J. W. et al. (1991), EMBO J., 10, 3137–3146). A fixed concentration of recombinant nidogen (0.2 nM) was incubated overnight at 4° C. with inhibitors at varying concentrations, followed by the addition of ^125I-labeled laminin fragment P1 (0.01 nM; 10,000–20,000 c.p.m.) for the same incubation period. Bound and non-bound fragment P1 was then separated by antibodies against nidogen.

Assay [2] concerns the target T1, recombinant nidogen. The description is as above. As to the method: as §1
This is another data set of the same source.

Assay [3] deals with T1, recombinant nidogen. Described as above. As to the method: as §1
This is another data set of the same source.

Another assay addresses T2, nidogen (Mus musculus, UniProt P10493).
T2 sequence (P10493 29-1245): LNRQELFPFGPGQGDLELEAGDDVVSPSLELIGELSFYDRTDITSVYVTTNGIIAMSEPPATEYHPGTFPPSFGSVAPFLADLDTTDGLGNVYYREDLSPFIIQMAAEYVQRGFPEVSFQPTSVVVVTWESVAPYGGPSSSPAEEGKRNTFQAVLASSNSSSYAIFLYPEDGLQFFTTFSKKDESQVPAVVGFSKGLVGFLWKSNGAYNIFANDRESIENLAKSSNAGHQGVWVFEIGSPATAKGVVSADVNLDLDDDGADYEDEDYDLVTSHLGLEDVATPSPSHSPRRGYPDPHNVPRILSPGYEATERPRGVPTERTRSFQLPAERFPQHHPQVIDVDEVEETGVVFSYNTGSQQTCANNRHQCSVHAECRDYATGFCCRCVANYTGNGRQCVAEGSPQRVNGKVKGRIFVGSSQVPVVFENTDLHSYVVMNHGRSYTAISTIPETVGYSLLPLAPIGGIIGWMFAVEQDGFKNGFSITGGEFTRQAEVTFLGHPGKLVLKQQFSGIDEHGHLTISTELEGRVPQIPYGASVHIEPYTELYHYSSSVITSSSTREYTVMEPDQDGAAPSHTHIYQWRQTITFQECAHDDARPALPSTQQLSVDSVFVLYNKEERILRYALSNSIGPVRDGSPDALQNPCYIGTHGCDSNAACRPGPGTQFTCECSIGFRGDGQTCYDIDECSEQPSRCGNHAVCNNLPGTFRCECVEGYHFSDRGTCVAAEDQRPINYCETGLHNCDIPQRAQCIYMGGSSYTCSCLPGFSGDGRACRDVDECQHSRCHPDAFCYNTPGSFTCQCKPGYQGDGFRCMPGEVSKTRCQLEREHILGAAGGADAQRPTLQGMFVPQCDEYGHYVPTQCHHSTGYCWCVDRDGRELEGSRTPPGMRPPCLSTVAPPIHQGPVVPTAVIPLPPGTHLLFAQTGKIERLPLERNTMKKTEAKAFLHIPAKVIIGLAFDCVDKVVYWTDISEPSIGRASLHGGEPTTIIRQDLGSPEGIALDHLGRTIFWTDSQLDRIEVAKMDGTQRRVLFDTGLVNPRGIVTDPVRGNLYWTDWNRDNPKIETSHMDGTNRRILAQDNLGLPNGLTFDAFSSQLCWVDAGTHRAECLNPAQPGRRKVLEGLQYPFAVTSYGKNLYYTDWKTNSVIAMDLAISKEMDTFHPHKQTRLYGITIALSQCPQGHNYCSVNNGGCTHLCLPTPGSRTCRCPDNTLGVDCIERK
Kind of assay: Radioligand competition assay: inhibition of 125I-laminin fragment P1 binding to nidogen. As to the method: as §1, with “71-80;” for “71–80;”, “3137-3146).” for “3137–3146).”, “^125 I-labeled” for “^125I-labeled”, “10,000-20,000” for “10,000–20,000”, “nidogen. Competitor concentrations causing 50% inhibition (IC50) were determined from dose-response profiles. […] IC50 values compared from different assays were normalized to a single fragment P1 value.” for “nidogen.”
On the technique in general: Displacement assays read how much labelled ligand stays bound in the presence of the test substance.

B1: NVDPSAS (peptide)
peptide: NVDPSAS
Take B1: the binding result in the assay with recombinant nidogen [1] is given as “no binding (tested: >290,000 nM)”.

B2: NVDPNAV (peptide)
peptide: NVDPNAV
For B2, in the assay with recombinant nidogen [2], the IC50 is 1200 nM.

B3: E3, 792-796 (peptide)
peptide: PCQCN
Consider B3, for which the binding result in the assay with recombinant nidogen [1] is reported as “no binding (tested: >96,000 nM)”.

B4: E1, 797-815 (peptide)
peptide: DNIDPNAVGNCNRLTGECL
Turning to B4, the IC50 in the assay with recombinant nidogen [1] was 530 nM.

B5: NVDPSAV (peptide)
peptide: NVDPSAV
In the case of B5, the binding result in the assay with recombinant nidogen [1] is “no binding (tested: >180,000 nM)”.

B6: NIDPNA (S, 798-803) (peptide)
peptide: NIDPNA
Turning to B6, the binding result in the assay with recombinant nidogen [1] is reported as “no binding (tested: >460,000 nM)”.

B7: Th1, 803-809 (peptide)
peptide: AVGNCNR
In the case of B7, the binding result in the assay with recombinant nidogen [1] was “no binding (tested: >30,000 nM)”.

B8: γ1III4 (other)
chain: PCQCNDNIDPNAVGNCNRLTGECLKCIYNTAGFYCDRCKEGFFGNPLAPNPADKCK
modifications: disulfide (positions not given here); not fully specified (bridges); also: four disulfide-bonded loops, pairing not given here
Take B8: in the assay with recombinant nidogen [3], the IC50 was found to be 0.05 nM.

B9: γ1III4Y825-A (other)
chain: PCQCNDNIDPNAVGNCNRLTGECLKCIYNTAGFACDRCKEGFFGNPLAPNPADKCK
With B9, the IC50 with recombinant nidogen [3] worked out at 0.06 nM.

B10: γ1III4D800-N (other)
chain: PCQCNDNINPNAVGNCNRLTGECLKCIYNTAGFYCDRCKEGFFGNPLAPNPADKCK
In the case of B10, the IC50 with recombinant nidogen [3] was determined as 1000 nM.

B11: γ1III3-5Δ4: recombinant deletion mutant joining repeats 3 and 5, lacking EGF-like repeat 4 (protein)
chain: PCPCPGGSSCAIVPKTKEVVCTHCPTGTAGKRCELCDDGYFGDPLGSNGPVRLCRACACNPYGTVQQQSSCNPVTGQCQCLPHVSGRDCGTCDPGYYNLQSGQGCE
Regarding B11, in the assay with nidogen (Table IV, recombinant mutants and chimeric structures of γ1III4, read-out: IC50 (inhibitory activity for laminin-nidogen binding)), the IC50 is > 3200 nM. Moreover, in the assay with nidogen (laminin-nidogen binding competition), the “inhibitory activity in words” value was “without measurable activity”.

B12: heptapeptide NIDPNAV (S, 798-804) (peptide)
peptide: NIDPNAV
In the case of B12, the IC50 with recombinant nidogen [2] worked out at 900 nM; with recombinant nidogen [1], 800 nM.

B13: recombinant fragment γ1III3-5 (other)
chain: PCPCPGGSSCAIVPKTKEVVCTHCPTGTAGKRCELCDDGYFGDPLGSNGPVRLCRPCQCNDNIDPNAVGNCNRLTGECLKCIYNTAGFYCDRCKEGFFGNPLAPNPADKCKACACNPYGTVQQQSSCNPVTGQCQCLPHVSGRDCGTCDPGYYNLQSGQGCE
Take B13: the IC50 with recombinant nidogen [1] turned out to be 0.04 nM.

B14: γ1III3-5, Asp/Glu amidation (other)
chain: PCPCPGGSSCAIVPKTKEVVCTHCPTGTAGKRCELCDDGYFGDPLGSNGPVRLCRPCQCNDNIDPNAVGNCNRLTGECLKCIYNTAGFYCDRCKEGFFGNPLAPNPADKCKACACNPYGTVQQQSSCNPVTGQCQCLPHVSGRDCGTCDPGYYNLQSGQGCE
modifications: carboxyl groups (Asp, Glu) activated with 1-ethyl-3-dimethylaminopropylcarbodiimide and blocked by norleucine methylester
Regarding B14, the IC50 with recombinant nidogen [1] is 2.1 nM.

These data come from patent US5493008A, “Two non-contiguous regions contribute to nidogen binding to a single EGF-like motif of the laminin γ1 chain” (The University Of Virginia Patent Foundation, priority 1994, dated 1996).
